Assay results taken from patent US20140161821A1, “TREATMENT WITH ANTI-PCSK9 ANTIBODIES” (PFIZER INC., priority 2011, published 2014).
Read-outs that look alike come from different tables or passages of the source.

Experiments:
PCSK9 [1] = biological target: T1, PCSK9 (Rattus norvegicus, UniProt P59996); test: Dose-response of serum cholesterol and triglycerides in Sprague-Dawley rats, single IP dose; assay type: in vivo
T1 construct: endogenous in cells; host or cells: live Sprague-Dawley rats (in vivo, serum PCSK9)
T1 sequence (P59996 152-691): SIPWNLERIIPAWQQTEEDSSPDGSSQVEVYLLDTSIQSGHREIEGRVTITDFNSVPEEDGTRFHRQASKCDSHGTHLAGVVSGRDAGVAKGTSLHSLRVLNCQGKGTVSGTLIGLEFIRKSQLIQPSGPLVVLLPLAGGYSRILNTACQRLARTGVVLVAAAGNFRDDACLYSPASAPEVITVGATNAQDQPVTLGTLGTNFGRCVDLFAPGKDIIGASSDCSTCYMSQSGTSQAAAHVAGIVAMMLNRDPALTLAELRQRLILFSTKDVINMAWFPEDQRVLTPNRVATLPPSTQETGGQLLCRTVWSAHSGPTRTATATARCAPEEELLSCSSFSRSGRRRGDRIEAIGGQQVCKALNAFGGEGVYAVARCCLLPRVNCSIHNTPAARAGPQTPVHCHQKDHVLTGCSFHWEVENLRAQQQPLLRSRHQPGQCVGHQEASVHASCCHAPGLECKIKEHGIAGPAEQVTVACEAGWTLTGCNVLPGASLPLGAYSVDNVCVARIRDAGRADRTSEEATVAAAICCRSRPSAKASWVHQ
From the text: The duration of the cholesterol repression was also dose dependent, ranging from 1 to 21 days.

[2] = Example 3 clinical study, single IV dose on stable atorvastatin: L1L3 pharmacokinetics; conditions: geometric mean
Method: Infusion rates were carefully controlled by an infusion device per protocol. Atorvastatin (40 mg daily) was administered as described below in the study protocol. Subjects self-administered atorvastatin during their participation in this study except from Days 1 through 7 during their confinement to the clinic where the same dose was administered by qualified site personnel.
The subjects returned to the clinical research unit for subsequent visits.
(§1) In the study, the incidence of subjects meeting toxicity or intolerable dose criteria was measured. Incidence of treatment emergent adverse events (TEAEs) categorized by severity and causal relationship to study drug was also be measured. The timeframe for measurement of each of the above outcomes was two months.
Dose Administration: subjects took sponsor-provided atorvastatin (40 mg). […] Subjects fasted at least 10 hours prior to the lipid panel blood sample on Days 5 and 6.

PCSK9 [3] = biological target: T2, PCSK9 (Homo sapiens, UniProt Q8NBP7); test: Example 3 clinical study, single IV dose on stable atorvastatin: fasting LDL-C; assay type: in vivo
T2 construct: PCSK9 antagonist antibody that antagonizes circulating PCSK9; endogenous in cells; host or cells: human subjects in clinical trials (in vivo, circulating PCSK9)
T2 sequence (Q8NBP7 153-692): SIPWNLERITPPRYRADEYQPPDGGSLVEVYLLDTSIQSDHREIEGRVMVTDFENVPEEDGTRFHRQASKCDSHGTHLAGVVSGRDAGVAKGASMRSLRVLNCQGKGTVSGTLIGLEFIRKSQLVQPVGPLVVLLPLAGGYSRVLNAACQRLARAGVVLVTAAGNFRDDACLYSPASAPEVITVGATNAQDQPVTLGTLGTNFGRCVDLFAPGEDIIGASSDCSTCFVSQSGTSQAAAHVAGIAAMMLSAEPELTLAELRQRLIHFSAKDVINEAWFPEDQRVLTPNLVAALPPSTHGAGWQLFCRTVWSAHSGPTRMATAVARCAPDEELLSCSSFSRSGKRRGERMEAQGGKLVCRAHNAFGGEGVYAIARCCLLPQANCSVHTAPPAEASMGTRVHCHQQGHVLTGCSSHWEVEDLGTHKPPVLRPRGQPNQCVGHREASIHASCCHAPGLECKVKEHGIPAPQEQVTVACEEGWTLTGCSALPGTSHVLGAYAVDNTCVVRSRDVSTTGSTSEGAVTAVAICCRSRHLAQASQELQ
T2 sequence (Q8NBP7 31-152 partner limits assumed): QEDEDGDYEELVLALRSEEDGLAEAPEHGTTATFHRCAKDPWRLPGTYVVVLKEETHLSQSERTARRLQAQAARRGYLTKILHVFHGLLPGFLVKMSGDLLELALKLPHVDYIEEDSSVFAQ
From the text: Subjects who have hypertension and are controlled on stable dosages of anti-hypertensive medications could be included. The study included both genders, with a minimum age limit of 18 and a maximum age limit of 80.

[4] = Example 3 clinical study: safety and adverse events; assay type: in vivo, human
Method: as §1

[5] = Method: Subjects were seen periodically in the clinic for safety assessments and collection of blood for safety labs, lipid profiles, PK, PD, and immunogenicity samples. Telephone contacts were made prior to each visit to remind them of the 10-hour fasting requirements, during screening and on Day 3 to assess adverse events and document the contact in the subject's source document. […] Infusions were administered as a single infusion over approximately 60 minutes.
[6] = Example 2 clinical study: safety and adverse events; assay type: in vivo; conditions: single IV 0.3-18 mg/kg
Method: The study entailed a randomized, placebo-controlled, ascending, single dose study of L1L3. The subjects, investigator, and site personnel (except site personnel responsible for drug preparation) were blinded to treatment assignments, as was the CRO designee; while the Sponsor clinical research team was unblinded. The study was conducted in 6 planned cohorts of 8 subjects per cohort in an effort to seek a maximum tolerated dose or MTD (total of approximately 48 subjects). […] Doses were administered following an overnight fast as an intravenous infusion over 60 minutes. […] Infusions will be administered as a single infusion over 60 minutes.
The dosing schedule was adjusted to allow administration of lower, intermediate, or higher doses to obtain a maximum tolerated dose and no effect dose. Each subject enrolled into the study, regardless of cohort assignment, received only one dose of study drug during their study participation.

[7] = single IV 0.5 or 4 mg/kg + atorvastatin 40 mg daily

B1: L1L3: humanized (<5% murine residues) monoclonal PCSK9 antagonist antibody that binds to secreted PCSK9; VH SEQ ID NO: 11, VL SEQ ID NO: 12 (antibody, V domains shown)
VH: QVQLVQSGAEVKKPGASVKVSCKASGYTFTSYYMHWVRQAPGQGLEWMGEISPFGGRTNYNEKFKSRVTMTRDTSTSTVYMELSSLRSEDTAVYYCARERPLYASDLWGQGTTVTVSS
VL: DIQMTQSPSSLSASVGDRVTITCRASQGISSALAWYQQKPGKAPKLLIYSASYRYTGVPSRFSGSGSGTDFTFTISSLQPEDIATYYCQQRYSLWRTFGQGTKLEIK
modifications: heavy chain variable region; light chain variable region
Non-fasting serum triglyceride levels, maximum increase (PCSK9 [1]; single IP 80 mg/kg): approximately three | Serum cholesterol reduction, maximum effect (PCSK9 [1]; single IP 10 and 80 mg/kg, 48 hours post dosing): 50% | AUCinf ([2]; 0.5 mg/kg L1L3 + atorvastatin): 46338 ng·days/mL | AUCt ([2]; 0.5 mg/kg L1L3 + atorvastatin): 38310 ng·days/mL | CL ([2]; 0.5 mg/kg L1L3 + atorvastatin): 10.8 mL/day/kg | Cmax ([2]; 0.5 mg/kg L1L3 + atorvastatin): 13.827 µg/mL | Vss ([2]; 0.5 mg/kg L1L3 + atorvastatin): 40.2 mL/kg | AUCinf ([2]; 4 mg/kg L1L3 + atorvastatin): 777167 ng·days/mL | AUCt ([2]; 4 mg/kg L1L3 + atorvastatin): 726337 ng·days/mL | CL ([2]; 4 mg/kg L1L3 + atorvastatin): 5.2 mL/day/kg | Cmax ([2]; 4 mg/kg L1L3 + atorvastatin): 105.048 µg/mL | Vss ([2]; 4 mg/kg L1L3 + atorvastatin): 52.3 mL/kg | mean percent change from baseline of fasting LDL-C (PCSK9 [3]; 0.5 mg/kg L1L3, atorvastatin 40 mg daily, Day 0): 0.0% | mean percent change from baseline of fasting LDL-C (PCSK9 [3]; 0.5 mg/kg L1L3, atorvastatin 40 mg daily, Day 1): −28.8% | mean percent change from baseline of fasting LDL-C (PCSK9 [3]; 0.5 mg/kg L1L3, atorvastatin 40 mg daily, Day 2): −48.5% | mean percent change from baseline of fasting LDL-C (PCSK9 [3]; 0.5 mg/kg L1L3, atorvastatin 40 mg daily, Day 3): −66.7% | mean percent change from baseline of fasting LDL-C (PCSK9 [3]; 0.5 mg/kg L1L3, atorvastatin 40 mg daily, Day 11): −34.4% | mean percent change from baseline of fasting LDL-C (PCSK9 [3]; 0.5 mg/kg L1L3, atorvastatin 40 mg daily, Day 18): 9.0% | mean percent change from baseline of fasting LDL-C (PCSK9 [3]; 0.5 mg/kg L1L3, atorvastatin 40 mg daily, Day 25): 23.3% | mean percent change from baseline of fasting LDL-C (PCSK9 [3]; 0.5 mg/kg L1L3, atorvastatin 40 mg daily, Day 32): 14.8% | mean percent change from baseline of fasting LDL-C (PCSK9 [3]; 0.5 mg/kg L1L3, atorvastatin 40 mg daily, Day 39): 21.2% | mean percent change from baseline of fasting LDL-C (PCSK9 [3]; 0.5 mg/kg L1L3, atorvastatin 40 mg daily, Day 46): 17.0% | mean percent change from baseline of fasting LDL-C (PCSK9 [3]; 0.5 mg/kg L1L3, atorvastatin 40 mg daily, Day 53): 27.9% | mean percent change from baseline of fasting LDL-C (PCSK9 [3]; 0.5 mg/kg L1L3, atorvastatin 40 mg daily, Day 60): 30.1% | Day on which the maximum LDL-C lowering effect was observed (PCSK9 [3]; 0.5 mg/kg L1L3, atorvastatin 40 mg, day following L1L3 administration): 3 days | mean percent change from baseline of fasting LDL-C (PCSK9 [3]; 4 mg/kg L1L3, atorvastatin 40 mg daily, Day 0): 0.0% | mean percent change from baseline of fasting LDL-C (PCSK9 [3]; 4 mg/kg L1L3, atorvastatin 40 mg daily, Day 1): −20.9% | mean percent change from baseline of fasting LDL-C (PCSK9 [3]; 4 mg/kg L1L3, atorvastatin 40 mg daily, Day 2): −38.4% | mean percent change from baseline of fasting LDL-C (PCSK9 [3]; 4 mg/kg L1L3, atorvastatin 40 mg daily, Day 3): −43.3% | mean percent change from baseline of fasting LDL-C (PCSK9 [3]; 4 mg/kg L1L3, atorvastatin 40 mg daily, Day 11): −64.6% | mean percent change from baseline of fasting LDL-C (PCSK9 [3]; 4 mg/kg L1L3, atorvastatin 40 mg daily, Day 18): −73.2% | mean percent change from baseline of fasting LDL-C (PCSK9 [3]; 4 mg/kg L1L3, atorvastatin 40 mg daily, Day 25): −70.8% | mean percent change from baseline of fasting LDL-C (PCSK9 [3]; 4 mg/kg L1L3, atorvastatin 40 mg daily, Day 32): −69.9% | mean percent change from baseline of fasting LDL-C (PCSK9 [3]; 4 mg/kg L1L3, atorvastatin 40 mg daily, Day 39): −45.1% | mean percent change from baseline of fasting LDL-C (PCSK9 [3]; 4 mg/kg L1L3, atorvastatin 40 mg daily, Day 46): −19.2% | mean percent change from baseline of fasting LDL-C (PCSK9 [3]; 4 mg/kg L1L3, atorvastatin 40 mg daily, Day 53): −3.6% | mean percent change from baseline of fasting LDL-C (PCSK9 [3]; 4 mg/kg L1L3, atorvastatin 40 mg daily, Day 60): 7.1% | Day through which the maximum LDL-C lowering effect was observed (PCSK9 [3]; 4 mg/kg L1L3, atorvastatin 40 mg, day following L1L3 administration): 32 days | Discontinued subjects [4, 7]: no discontinued subjects | Intensity of TEAEs [4, 7]: none were severe in intensity | Serious adverse events (SAE) [4, 7]: one serious adverse event (SAE), i.e. worsening of migraine headache, which was not drug-related | Alanine aminotransferase (ALT) and/or aspartate aminotransferase (AST) elevation (TEAEs) ([4]; transient, without clinical signs/symptoms, all resolved within one week): greater than 3 ×ULN | Cmax ([5]; 0.25 mg/kg, after 1st dose): 10.9 ± 13.0 µg/mL | Ctrough ([5]; 0.25 mg/kg, after 1st dose): 0.109 ± 0.406 µg/mL | Ctrough ([5]; 3 mg/kg, after 3rd dose): 3.04 ± 4.42 µg/mL | Ctrough ([5]; 6 mg/kg, after 3rd dose): 15.6 ± 15.3 µg/mL | Discontinuation due to treatment emergent adverse events (TEAEs) [6]: no subjects discontinued | Intensity of TEAEs [6]: majority of TEAEs were mild in intensity; none were severe | Serious adverse events [6]: no serious adverse events occurred
